Columns and labels:
[1] = target: PLK1 (endogenous, in HeLa / HeLa-H2B-GFP cells) (human), P53350; test: cell-based or functional assay
[2] = target: PLK1 PBD protein (residues 367-603) (human), P53350; test: competitive FP
[3] = target: PLK1 PBD protein (residues 367-603) (human), P53350; test: competitive FP, displacement of fluorescein tracer SEQ ID NO: 7 from PLK1 PBD (367-603)

Chain of PLK1 PBD protein (residues 367-603) (human), P53350 (P53350 367-603 limits assumed): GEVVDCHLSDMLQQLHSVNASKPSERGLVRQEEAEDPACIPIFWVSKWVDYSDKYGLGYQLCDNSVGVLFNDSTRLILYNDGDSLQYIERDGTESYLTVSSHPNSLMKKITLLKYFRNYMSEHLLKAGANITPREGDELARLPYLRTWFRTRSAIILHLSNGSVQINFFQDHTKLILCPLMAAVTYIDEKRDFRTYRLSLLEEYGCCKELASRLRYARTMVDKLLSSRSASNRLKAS
Chain of PLK1 (endogenous, in HeLa / HeLa-H2B-GFP cells) (human), P53350 (P53350 2-603): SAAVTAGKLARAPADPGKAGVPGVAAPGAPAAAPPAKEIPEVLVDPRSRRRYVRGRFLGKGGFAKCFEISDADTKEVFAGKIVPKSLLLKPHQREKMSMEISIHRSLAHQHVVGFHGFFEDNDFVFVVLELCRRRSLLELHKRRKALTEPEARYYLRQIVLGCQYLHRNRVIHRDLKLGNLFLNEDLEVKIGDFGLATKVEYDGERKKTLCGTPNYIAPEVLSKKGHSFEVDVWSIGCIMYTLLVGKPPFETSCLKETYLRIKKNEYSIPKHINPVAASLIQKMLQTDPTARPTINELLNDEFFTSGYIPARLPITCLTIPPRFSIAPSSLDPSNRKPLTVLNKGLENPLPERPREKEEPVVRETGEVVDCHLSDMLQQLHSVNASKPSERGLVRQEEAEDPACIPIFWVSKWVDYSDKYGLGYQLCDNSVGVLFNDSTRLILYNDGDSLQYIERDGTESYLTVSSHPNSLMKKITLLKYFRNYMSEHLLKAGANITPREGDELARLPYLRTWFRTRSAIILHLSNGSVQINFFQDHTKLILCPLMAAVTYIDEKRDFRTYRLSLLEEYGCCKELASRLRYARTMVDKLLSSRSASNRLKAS

In the case of LLCSTPNGL (modifications not checked) [Ac-LLCS[pT]PNGL (sample no. 5821)], the fraction of viable cells after 24 hours, 30 µM (Annexin V/PI) [1] is reported as 57%.

LLCSEPNGL (modifications not checked) [… (sample no. 345)] showed a fold less potent (than the phosphothreonine sequence) [2] of 1000 fold and an IC50 [3] of 350 µM.

Work on STPNGL (modifications not checked) [Sample No. 5600, fragment ligated inhibitor] yielded an IC50 [3] of 550 µM.

Work on STPNGL (modifications not checked) [Sample No. 5754, fragment ligated inhibitor (4-methoxybenzoic acid)] yielded an IC50 [3] of 125 µM.

STPNGL (modifications not checked) [Sample No. 5593, fragment ligated inhibitor] gave an IC50 [3] of 380 µM.

For STPNGL (modifications not checked) [Sample No. 5591, fragment ligated inhibitor], the IC50 [3] was 375 µM.

LLCSTPNGL (modifications not checked) [LLCS[pT]PNGL, native phospho-CDC25c PBD binding sequence (sample no. 292)] was tested, and the aberrant prometaphase/metaphase features (30 µM) [1] was 25% and the relative fluorescence intensity of PLK1 staining at centrosomes (HeLa-H2B-GFP) (arbitrary fluorescence units) [1] was 45.

Binder STPNGL (modifications not checked) [Sample No. 5786, fragment ligated inhibitor (4-ethoxybenzoic acid)] has an IC50 [3] of 64.7 µM.

For LHSTAI (modifications not checked) [Ac-LHS[pT]AI (sample no. 5781)], the aberrant metaphase (30 µM) [1] was 23%, the decrease of the percentage of viable cells, 24 hours, 30 µM (Annexin V/PI) [1] was 30% and the relative fluorescence intensity of PLK1 staining at centrosomes (30 µM, HeLa-H2B-GFP) (arbitrary fluorescence units) [1] was 35.

STPNGL (modifications not checked) [Sample No. 5791, fragment ligated inhibitor (4-(Methylthio) benzoic acid)] showed an IC50 [3] of 18.5 µM.

PLHSEA (modifications not checked) [Ac-PLHSEA (sample no. 5744)] was tested, and the IC50 [3] was 500 µM.

Binder STPNGL (modifications not checked) [Sample No. 5597, fragment ligated inhibitor] has an IC50 [3] of 500 µM.

Binder STPNGL (modifications not checked) [Sample No. 5826, fragment ligated inhibitor (4-propylbenzoic acid)] has an IC50 [3] of 10.8 µM.

STPNGL (modifications not checked) [3G2-S[pT]PNGL (4-butylbenzoic acid) (Sample No. 5827)] showed an Aberrant mitoses @ 24 hr [1] of 53.8%, an Apoptosis @24 hr [1] of 55.5% and a proportion of viable cells after 24 hours, 30 µM (Annexin V/PI) [1] of 45%.

STPNGL (modifications not checked) [Sample No. 5599, fragment ligated inhibitor] was tested, and the IC50 [3] was 600 µM.

Work on STPNGL (modifications not checked) [3G1-S[pT]PNGL (4-ethylbenzoic acid) (Sample No. 5788)] yielded an Aberrant mitoses @ 24 hr [1] of 47.9%, an Apoptosis @24 hr, 30 mM [1] of 36.2% and a proportion of viable cells after 24 hours, 30 µM (Annexin V/PI) [1] of 64%. For the same binder, the relative fluorescence intensity of PLK1 staining at centrosomes (10 µM, HeLa-H2B-GFP) (arbitrary fluorescence units) [1] was 32.

In the case of STPNGL (modifications not checked) [Sample No. 5604, fragment ligated inhibitor], the IC50 [3] is reported as 300 µM.

Work on STPNGL (modifications not checked) [Sample No. 5595, fragment ligated inhibitor] yielded an IC50 [3] of 475 µM.

Work on PLHSTA (modifications not checked) [Ac-PLHS[pT]A (sample no. 5743)] yielded an Aberrant mitoses @ 24 hr, 30 mM [1] of 40.3%, an Apoptosis @24 hr [1] of 34% and a cells with mitotic abnormalities (10 µM) [1] of 32%. It also gave a relative fluorescence intensity of PLK1 staining at centrosomes (30 µM, HeLa-H2B-GFP) (arbitrary fluorescence units) [1] of 33.

STPNGL (modifications not checked) [Sample No. 5753, fragment ligated inhibitor] showed an IC50 [3] of 104 µM.

STPNGL (modifications not checked) [Sample No. 5601, fragment ligated inhibitor] gave an IC50 [3] of 400 µM.

For STPNGL (modifications not checked) [Sample No. 5830, fragment ligated inhibitor (4-(Propylamino) benzoic acid)], the IC50 [3] was 16.5 µM.

With LLAAAPNGL (modifications not checked) [… (sample no. 5783)] the aberrant prometaphase/metaphase features (30 µM) [1] was 9.5%.

STPNGL (modifications not checked) [Sample No. 5792, fragment ligated inhibitor (4-(Methylamino) benzoic acid)] was tested, and the IC50 [3] was 31.2 µM.

Source: US20160011195A1
